The assay concerns the target T1, Dhh1 (full-length) (S. cerevisiae, UniProt P39517 1-506).
T1 construct: Dhh1, DEAD-box ATPase, S. cerevisiae, full-length; also called DEAD-box ATPase Dhh1; source: purified as described previously (Mugler et al., 2016)
T1 sequence (looked up): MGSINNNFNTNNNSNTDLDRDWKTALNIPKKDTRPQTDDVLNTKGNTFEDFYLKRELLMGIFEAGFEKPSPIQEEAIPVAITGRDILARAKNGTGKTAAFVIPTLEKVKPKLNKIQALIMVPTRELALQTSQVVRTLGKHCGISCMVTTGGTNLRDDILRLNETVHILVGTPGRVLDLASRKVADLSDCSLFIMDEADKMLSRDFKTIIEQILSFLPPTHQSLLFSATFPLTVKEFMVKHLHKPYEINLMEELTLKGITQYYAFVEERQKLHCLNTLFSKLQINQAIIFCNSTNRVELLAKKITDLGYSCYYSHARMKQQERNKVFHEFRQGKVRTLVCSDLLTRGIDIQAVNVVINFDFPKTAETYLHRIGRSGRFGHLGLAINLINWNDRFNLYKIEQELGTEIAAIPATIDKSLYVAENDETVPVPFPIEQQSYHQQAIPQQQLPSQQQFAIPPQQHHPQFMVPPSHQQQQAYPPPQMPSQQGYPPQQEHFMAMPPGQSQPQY
The experiment in a line: pull-down; GST-Pat1-NC and mutants bound to GST-slurry as bait, Dhh1 as prey; 1 hr at 4°C; wash buffer 300 mM NaCl, 10 mM Tris pH 7.5, 0.05 % NP40, washed five times; 12% acrylamide gel, Coomassie. The following applies: both partners purified.

Changes are numbered by the printed parent chain.

B1: GST-Pat1-NC (domain or fragment, S. cerevisiae)
chain: GLENSGNARDGPLDFEESYKGYGEHELEENDYLNDETFGDNVQVGTDFDFGNPHSSGSSGNAIGGNGVGATARSYGGSGGSGGSGGSSSYAFNNGNGATNLNKSGGKKFILELIETVYEEILDLEANLRNGQQTDSTAMWEALHIDDSSYDVNPFISMLSFDKGIKIMPRIFNFLDKQQKLKILQKIFNELSHLQIIILSSYKTTPKPTLTQLKKVDLFQMIILKIIVSFLSNNSNFIEIMGLLLQLIRNNNVSFLTTSKIGLNLITILISRAALIKQDSSRSNILSSPEISTWNEIYDKLFTSLESKIQLIFPPREYNDHIMRLQNDKFMDEAYIWQFLASLALSGKLNHQRIIIDEVRDEIFATINEAETLQKKEKELSVLPQRSQELDTELKSIIYNKEKLYQDLNLFLNVMGLVY
notes: Pat1, S. cerevisiae, N-terminal fragment (Pat1-N), amino acids 5-79; linker, printed as (GGS)4; Cloned into a pETM-CN vector; The His and GST tags were cleaved unless required for pull-down assays; In the droplet assay (functional rows) the protein was Pat1-NC-GFP, not the GST form; also called recombinant Pat1-NC protein; source: E. coli BL21 DE3, purified (Ni2+ sepharose, Superdex 200); not …
Take B1: the binding result is given as “binds”.

B2: GST-Pat1-NC^EE (domain or fragment, S. cerevisiae)
chain: B1 chain with S88E, S89E
notes: Pat1, S. cerevisiae, N-terminal fragment (Pat1-N), amino acids 5-79; linker, printed as (GGS)4; Mutant of m1; also called Pat1^EE; phospho-mimetic mutant; source: E. coli BL21 DE3, purified (Ni2+ sepharose, Superdex 200); not shown: GST, N-terminal, kept
Turning to B2, the binding result is reported as “binds”.

Values taken from publication PMC6366900, “Pat1 promotes processing body assembly by enhancing the phase separation of the DEAD-box ATPase Dhh1 and RNA” (eLife, 2019).
